The record followed here is article PMC7278359 (The Journal of Biological Chemistry, 2020).

For assay [1], the target named is Nck1-SH3.1 (residues 4–59) (human, UniProt P16333 4-59). Kind of assay: crystal structure; Nck1-SH3.1 (4-59) with 2-fold molar excess of Ac-…-NH2; 0.1 M Bis-Tris/HCl pH 6.5, 2 M (NH4)2SO4; sitting drop, 22 °C; two complexes in the asymmetric unit (5QU2). The note with it: both partners purified.
Assay [2] shares this target. Kind of assay: crystal structure; Nck1-SH3.1 with 2-fold molar excess of Ac-…-NH2; 0.1 M BisTris/HCl pH 6.5, 2 M (NH4)2SO4; space group I212121, two complexes in the asymmetric unit. The note with it: both partners purified.

B1: CD3ε-derived peptide Ac-PPPVPNPDY-NH2 (residues 180–188) (peptide)
peptide: Ac-PPPVPNPDY-NH2
notes: also called minimal CD3ε peptide; source: synthetic peptide, from Biosynthan
For B1, the binding result in assay [1] is “binds”.

B2: minimal CD3ϵ peptide Ac-PPPVPNPDY-NH2 (residues 180–188) (peptide)
peptide: Ac-PPPVPNPDY-NH2
notes: CD3ϵ residues 180–188 (PRS); MM 1109.3 Da; source: synthetic peptide (bought: Biosynthan)
For the molecule B2, the binding result in assay [2] is reported as “binds”.
